Laboratory results: IntAct's records for PubMed 27458164

B1: Src-like-adapter 2 (Mus musculus), Q8R4L0 (parent)
chain: MGSLSSRGKTSSPSPSSSGPDQEPVSMQPERHKVTAVALGSFPAGEQARLSLRLGEPLTIISEDGDWWTVQSEVSGREYHMPSVYVAKVAHGWLYEGLSREKAEELLLLPGNPGGAFLIRESQTRRGCYSLSVRLSRPASWDRIRHYRIQRLDNGWLYISPRLTFPSLHALVEHYSELADGICCPLREPCVLQKLGPLPGKDTPPPVTVPTSSLNWKKLDRSLLFLEAPASGEASLLSEGLRESLSSYISLAEDPLDDA

Variants of: B1
Conditions: with flt3_human FLT3, P36888
Sequence of flt3_human FLT3, P36888 (P36888 whole entry): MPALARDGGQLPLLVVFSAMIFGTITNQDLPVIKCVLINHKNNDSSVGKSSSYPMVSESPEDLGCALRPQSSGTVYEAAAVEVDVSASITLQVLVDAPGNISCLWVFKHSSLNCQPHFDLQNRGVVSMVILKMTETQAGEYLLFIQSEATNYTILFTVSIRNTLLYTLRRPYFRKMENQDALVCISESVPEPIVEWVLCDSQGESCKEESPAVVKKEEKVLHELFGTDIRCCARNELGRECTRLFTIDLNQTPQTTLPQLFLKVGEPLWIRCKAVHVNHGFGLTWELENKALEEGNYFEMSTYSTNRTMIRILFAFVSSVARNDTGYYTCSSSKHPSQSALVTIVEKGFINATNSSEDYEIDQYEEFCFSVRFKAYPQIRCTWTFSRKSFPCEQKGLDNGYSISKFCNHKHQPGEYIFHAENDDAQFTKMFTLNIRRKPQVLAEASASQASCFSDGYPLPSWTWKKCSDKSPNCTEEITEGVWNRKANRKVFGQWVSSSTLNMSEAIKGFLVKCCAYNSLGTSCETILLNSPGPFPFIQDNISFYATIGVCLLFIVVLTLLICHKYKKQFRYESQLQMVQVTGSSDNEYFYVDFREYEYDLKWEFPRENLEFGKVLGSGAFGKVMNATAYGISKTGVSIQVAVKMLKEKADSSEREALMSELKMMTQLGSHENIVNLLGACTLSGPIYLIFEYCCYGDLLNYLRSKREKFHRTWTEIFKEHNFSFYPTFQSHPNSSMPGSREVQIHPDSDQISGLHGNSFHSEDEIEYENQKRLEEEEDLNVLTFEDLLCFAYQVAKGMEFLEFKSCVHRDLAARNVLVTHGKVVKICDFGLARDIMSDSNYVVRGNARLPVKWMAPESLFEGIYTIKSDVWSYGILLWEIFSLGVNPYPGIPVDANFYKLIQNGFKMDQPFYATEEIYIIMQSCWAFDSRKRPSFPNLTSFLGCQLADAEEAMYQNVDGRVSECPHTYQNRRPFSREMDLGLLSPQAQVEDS

Row | effect of a mutation on the interaction | Variant
1 | disrupting interaction | MGSLSSRGKTSSPSPSSSGPDQEPVSMQPERHKVTAVALGSFPAGEQARLSLRLGEPLTIISEDGDWWTVQSEVSGREYHMPSVYVAKVAHGWLYEGLSREKAEELLLLPGNPGGAFLIEESQTRRGCYSLSVRLSRPASWDRIRHYRIQRLDNGWLYISPRLTFPSLHALVEHYSELADGICCPLREPCVLQKLGPLPGKDTPPPVTVPTSSLNWKKLDRSLLFLEAPASGEASLLSEGLRESLSSYISLAEDPLDDA [R120E]
